Results from patent US20200115714A1 (GEORGIA TECH RESEARCH, published 2020).
Substitutions are numbered along the chain they refer to. In names and notes the source's numbering stands.

T1: E. coli fatty acid biosynthesis acyl carrier protein (E. coli AcpP), P0A6A8
T1 chain: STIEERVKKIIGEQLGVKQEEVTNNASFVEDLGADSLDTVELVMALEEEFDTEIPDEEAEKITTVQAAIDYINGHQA

B1: AbTE:G17R with C-terminal His6-tag (pET-28b-AbTE:G17R) (enzyme)
chain: MGKTILILGDSLSAGYRINPEQGWVALLQKRLDQQFPKQHKVINASVSGETTSGALARLPKLLTTYRPNVVVIELGGNDALRGQPPQMIQSNLEKLIQHSQKAKSKVVVFGMKIPPNYGTAYSQAFENNYKVVSQTYQVKLLPFFLDGVAGHKSLMQNDQIHPNAKAQSILLNNAYPYIKGALHHHHHH
notes: Purified protein; also called pET-AbTE:G17R
B2: AbTE:G17R/A165R with C-terminal His6-tag (pET-28b-AbTE:G17R/A165R) (enzyme)
chain: B1 chain with A165R
notes: Purified protein; also called pET-AbTE:G17R/A165R
B3: AbTE:G17E (protein)
chain: MGKTILILGDSLSAGYEINPEQGWVALLQKRLDQQFPKQHKVINASVSGETTSGALARLPKLLTTYRPNVVVIELGGNDALRGQPPQMIQSNLEKLIQHSQKAKSKVVVFGMKIPPNYGTAYSQAFENNYKVVSQTYQVKLLPFFLDGVAGHKSLMQNDQIHPNAKAQSILLNNAYPYIKGAL
B4: AbTE:G17R/A165R (protein)
chain: B3 chain with E17R, A165R
B5: AbTE:G17R (protein)
chain: B3 chain with E17R
B6: AbTE:G17R/A165E (protein)
chain: B3 chain with E17R, A165E
B7: Acinetobacter baylyi acyl-ACP thioesterase (AbTE) wild type (protein)
chain: B3 chain with E17G
B8: AbTE:T120R/A121R (protein)
chain: B3 chain with E17G, T120R, A121R
B9: AbTE:G17E/A165R (protein)
chain: B3 chain with A165R
B10: AbTE:G17E/A165E (protein)
chain: B3 chain with A165E

Experiments:
15N-octanoyl-AcpP = biological target: T2, 15N-octanoyl-AcpP (Escherichia coli, UniProt P0A6A8 2-78, octanoyl group, 15N-labelled (printed as 15N-octanoyl-AcpP); attachment site not given); experiment: NMR titrations between 15N-octanoyl-AcpP and the AbTEs
T2 construct: Purified, labelled AcpP of the NMR titrations; also called 15N-AcpP; E. coli ACP

[1] = biological target: T1, E. coli fatty acid biosynthesis acyl …

| Binder | secreted MCFAs, E. coli (GC/MS) [1] | secreted MCFAs, E. coli MG1655, 24 hrs (GC/MS) [1] | secreted MCFAs, E. coli, 72 hrs (GC/MS) [1] | other results |
| --- | --- | --- | --- | --- |
| B1 |  |  |  | binding result (15N-octanoyl-AcpP): binds |
| B2 |  |  |  | binding result (15N-octanoyl-AcpP): binds |
| B3 | ˜21 mg/L and 14 mg/L of secreted MCFAs, respectively |  |  |  |
| B4 |  | ˜98 mg/L of secreted MCFAs | increased from 98 mg/L to 131 mg/L when extending the cultivation time from 24 hrs to 72 hrs | secreted MCFA titers against AbTE:G17R [1]: a 29% increase in secreted MCFA titers when compared to expression of AbTE:G17R; secreted MCFA titers against AbTE:WT [1]: a more than 3-fold in secreted MCFA titers when compared to AbTE:WT |
| B5 |  | ˜76 mg/L of secreted MCFAs | cultivating E. coli expressing AbTE:G17R for 72 hrs did not result in any changes in MCFA titers |  |
| B6 | AbTE:G17R/A165E resulted in ˜57 mg/L of secreted MCFAs |  |  |  |
| B7 |  | ˜29 mg/L of secreted MCFAs | from ˜29 mg/L to ˜79 mg/L |  |
| B8 |  |  |  | secreted MCFAs, E. coli, 24 hrs (GC/MS) [1]: AbTE:T120R/A121R produced ˜45 mg/L of secreted MCFAs |
| B9 | This favorable effect in secreted MCFAs or secreted fatty acids of all chain lengths is not seen in AbTE:G17E/A165R |  |  |  |
| B10 | ˜21 mg/L and 14 mg/L of secreted MCFAs, respectively |  |  |  |
